One molecule from PMC2175300 can be followed below.

Broadly, the Kd is the free concentration of one partner at which half of the binding sites on the other are occupied at equilibrium, for simple one-to-one binding. A low value points to a tighter complex.

Some targets named below: FOXO3a-DBD K242A (Homo sapiens, UniProt O43524 158-253, K242A); FOXO3a-DBD K245A (Homo sapiens, UniProt O43524 158-253, K245A); FOXO3a-DBD WT (Homo sapiens, UniProt O43524 158-253); FOXO3a-DBD 158-240 (Homo sapiens, UniProt O43524 158-240); FOXO3a-DBD RRR/AAA (Homo sapiens, UniProt O43524 158-253, R248A;R249A;R250A); FOXO3a-DBD S253D (Homo sapiens, UniProt O43524 158-253, S253D).

Common to all, as to assay: fluorescence anisotropy

Sequence of FOXO3a-DBD RRR/AAA (O43524 158-253 R248A/R249A/R250A): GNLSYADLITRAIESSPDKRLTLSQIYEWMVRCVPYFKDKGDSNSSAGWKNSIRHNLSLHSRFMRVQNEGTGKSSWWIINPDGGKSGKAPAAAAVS
Sequence of FOXO3a-DBD WT (O43524 158-253): as the sequence (O43524 158-253 R248A/R249A/R250A) above, with A91R, A92R, A93R counted along it
Sequence of FOXO3a-DBD S253D (O43524 158-253 S253D): as the sequence (O43524 158-253 R248A/R249A/R250A) above, with A91R, A92R, A93R, S96D counted along it
Sequence of FOXO3a-DBD K242A (O43524 158-253 K242A): as the sequence (O43524 158-253 R248A/R249A/R250A) above, with K85A, A91R, A92R, A93R counted along it
Sequence of FOXO3a-DBD 158-240 (O43524 158-240): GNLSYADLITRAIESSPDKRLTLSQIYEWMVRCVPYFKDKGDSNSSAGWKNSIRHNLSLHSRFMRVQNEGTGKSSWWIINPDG
Sequence of FOXO3a-DBD K245A (O43524 158-253 K245A): as the sequence (O43524 158-253 R248A/R249A/R250A) above, with K88A, A91R, A92R, A93R counted along it

B1: 26-bp FOXO consensus FA duplex (dsDNA)
DNA 1: CGCATCCTATGTAAACAACTCGAGTC
DNA 2: GACTCGAGTTGTTTACATAGGATGCG
With B1, the dissociation constant Kd in the data set with FOXO3a-DBD K242A was 399 ± 25 nM; with FOXO3a-DBD K245A, 511 ± 63 nM; in the data set with FOXO3a-DBD WT it was 295 ± 26 nM; in the data set with FOXO3a-DBD 158-240, 1490 ± 197 nM; with FOXO3a-DBD RRR/AAA it was 1180 ± 168 nM; with FOXO3a-DBD S253D, 549 ± 55 nM.
